Measured values as given in article PMC8325321.

Target: recombinant importin α2-His (Laodelphax striatellus)
Test: MST

With NP-GST (natural protein) as the substance, how does the Kd read?
Its Kd is 9.1 µM.
